For test [1], the target named is T1, aggregated synthetic Aβ1-42 (UniProt P05067 672-713).
T1 construct: range 672-713; Aggregated form coated for ELISA; also called aggregated Aβ1-42; aggregate Aβ 1-42
Put plainly: ELISA on aggregated synthetic Aβ1-42 (given as ED50).

For the next test, the target named is T2, Monomer (preparation treated with peroxynitrite; modified residues not stated ; The preparation was treated with peroxynitrite. The modified residues are not stated and cannot be shown in the letters.).
T2 construct: Monomer fraction of the same preparation as m4; also called Aβ1-42 monomer; monomeric Aβ
Put plainly: immunoprecipitation of the peroxynitrite treated oligomeric Aβ1-42 preparation with the antibody, SDS-PAGE (16% Tricine), Western blot imaged with 3D6. On the technique in general: A western blot detects proteins with antibodies after separation by electrophoresis.

For test [2], the target named is T1, aggregated synthetic Aβ1-42. Put plainly: ELISA on aggregated synthetic Aβ1-42. A general note: In an ELISA, binding on a coated surface is turned into a signal by an enzyme label.
In test [3] the target is T3, Aβ peptide (β-amyloid peptide; form and length not stated for the assay) (UniProt P05067 672-713).
T3 construct: also called beta amyloid peptide
The test can be described thus: BIAcore. A general note: Surface plasmon resonance follows binding to a sensor surface in real time, without labels.

Test [4] concerns the target T3, Aβ peptide (β-amyloid peptide; form and …). The test can be described thus: ELISA competitive binding assay with biotinylated 3D6.
For test [5] the target is unchanged. Put plainly: average of competitive ELISA and BIAcore.
For test [6] the target is unchanged. Put plainly: BIAcore, Langmuir model (global analysis).
For test [7] the target is unchanged. The test can be described thus: Biacore; humanized h12A11v1.
Test [8] deals with T1, aggregated synthetic Aβ1-42. The test can be described thus: competitive Aβ ELISA with biotin conjugated mouse 12A11 Cγ2a.

B1: murine 12B4 monoclonal antibody (antibody, V domains shown)
VH: QVTLKESGPGILQPSQTLSLTCSFSGFSLSTNGMGVSWIRQPSGKGLEWLAHIYWDEDKRYNPSLKSRLTISKDTSNNQVFLKITNVDTADTATYYCARRRIIYDVEDYFDYWGQGTTLTVSS
VL: DVLMTQTPLSLPVSLGDQASISCRSSQNIVHSNGNTYLEWYLQKPGQSPKLLIYKVSNRFSGVPDRFSGSGSGTDFTLKISRVEAEDLGVYYCFQGSHVPLTFGAGTKLELK
notes: Mouse hybridoma antibody; Leader left out; also called mAb 12B4
What is called EC50 is the concentration that produces a half-maximal response. The low end stands for greater potency, the high end for weaker potency. In the case of B1, the EC50 is 0.667 nM in test [1] and < 1 nM in [2]. In addition, the binding result in the test with Monomer is given as “binds”.

B2: murine 12A11 monoclonal antibody (antibody, mouse IgG1, V domains shown)
VH: QVTLKESGPGILKPSQTLSLTCSFSGFSLSTSGMSVGWIRQPSGKGLEWLAHIWWDDDKYYNPSLKSRLTISKDTSRNQVFLKITSVDTADTATYYCARRTTTADYFAYWGQGTTLTVSS
VL: DVLMTQTPLSLPVSLGDQASISCRSSQSIVHSNGNTYLEWYLQKPGQSPKLLIYKVSNRFSGVPDRFSGSGSGTDFTLKISRVEAEDLGIYYCFQSSHVPLTFGAGTKLELK
notes: also called mu12A11; m12A11
For B2, the figures for the EC50 in test [1] and in [2] were 0.233 nM and < 1 nM, respectively.

B3: monoclonal antibody 2C1 (antibody, V domains shown)
VH: EVQLQQSGAELVKPGASVKLSCTGSGFNIKVYYVHWLKQLTEQGLEWIGRIDPENGETIYAPKFQDKATLTVDTSSNTAYLQLSSLTSEDTAVYYCVSSGYWGQGTTLTVSS
VL: DIVMTQSAFSNPVTLGTSASISCRSSKSLLHRNGITYLYWYLQKPGQSPQLLIYQMSNLASGVPDRFTSSGSGTDFTLKISRVEAEDVGVYYCAQNLELWTFGGGTKLEIK
On to B3, for which the figures for the EC50 in test [1] and in test [2] were 0.333 nM and < 1 nM, respectively.

B4: humanized 3D6 version 1 (antibody, V domains shown)
VH: EVQLLESGGGLVQPGGSLRLSCAASGFTFSNYGMSWVRQAPGKGLEWVASIRSGGGRTYYSDNVKGRFTISRDNAKNSLYLQMNSLRAEDTALYYCVRYDHYSGSSDYWGQGTLVTVSS
VL: YVVMTQSPLSLPVTPGEPASISCKSSQSLLDSDGKTYLNWLLQKPGQSPQRLIYLVSKLDSGVPDRFSGSGSGTDFTLKISRVEAEDVGVYYCWQGTHFPRTFGQGTKVEIK
notes: also called h3D6v1; h3D6 v1
As a reminder, the Kd is the concentration at which binding is half-saturated. Higher therefore signals lower affinity. Turning to B4, in [3], the Kd was determined as 2.06 nM. The “fold less binding affinity than 3D6” value in test [4] is ~6 fold. Also, the “fold loss of binding affinity against murine 3D6” value in test [5] is ~3 fold.

B5: humanized 3D6 version 2 (antibody, V domains shown)
VH: EVQLLESGGGLVQPGGSLRLSCAASGFTFSNYGMSWVRQAPGKGLEWVASIRSGGGRTYYSDNVKGRFTISRDNSKNTLYLQMNSLRAEDTAVYYCVRYDHYSGSSDYWGQGTLVTVSS
VL: DVVMTQSPLSLPVTPGEPASISCKSSQSLLDSDGKTYLNWLLQKPGQSPQRLIYLVSKLDSGVPDRFSGSGSGTDFTLKISRVEAEDVGVYYCWQGTHFPRTFGQGTKVEIK
notes: also called h3D6v2; h3D6 v2
In turn, B5 returned a Kd in [3] of 2.24 nM. The “fold less binding affinity than 3D6” value in test [4] is ~6 fold. The “fold loss of binding affinity against murine 3D6” value in test [5] is ~3 fold.

B6: humanized 12A11 version 2 (antibody, V domains shown)
VH: QVQLVESGGGVVQPGRSLRLSCAFSGFTLSTSGMSVGWIRQAPGKGLEWVAHIWWDDDKYYNPSLKSRFTISKDTSKNTLYLQMNSLRAEDTAVYYCARRTTTADYFAYWGQGTTVTVSS
VL: DVVMTQSPLSLPVTPGEPASISCRSSQSIVHSNGNTYLEWYLQKPGQSPQLLIYKVSNRFSGVPDRFSGSGSGTDFTLKISRVEAEDVGVYYCFQSSHVPLTFGQGTKLEIK
notes: V region subcloned into heavy chain expression vector pCMV-Cgamma1 (human γ1); also called h12A11v2
The koff is the first-order rate constant of dissociation. Higher therefore signals fast dissociation. In general, kon refers to the second-order rate constant of association. Higher therefore signals fast association. In the case of B6, in [6], the Ka came to 6.86e+07 M⁻¹, the Kd turned out to be 14.6 nM, the koff was determined as 0.00412 s⁻¹ and the kon came to 283000 M⁻¹ s⁻¹.

B7: humanized 12A11 version 1 (antibody, V domains shown)
VH: QVQLVESGGGVVQPGRSLRLSCAFSGFSLSTSGMSVGWIRQAPGKGLEWLAHIWWDDDKYYNPSLKSRLTISKDTSKNTVYLQMNSLRAEDTAVYYCARRTTTADYFAYWGQGTTVTVSS
VL: DVVMTQSPLSLPVTPGEPASISCRSSQSIVHSNGNTYLEWYLQKPGQSPQLLIYKVSNRFSGVPDRFSGSGSGTDFTLKISRVEAEDVGVYYCFQSSHVPLTFGQGTKLEIK
notes: Variable regions only tied to the tested antibody; also called h12A11v1; humanized 12A11 v1
Take B7: the Kd in test [7] was found to be 23 nM. In addition, in test [6], the Ka amounted to 3.48e+08 M⁻¹, the Kd amounted to 2.87 nM, the koff was determined as 0.00117 s⁻¹ and the kon was found to be 408000 M⁻¹ s⁻¹. The “IC50 ratio to murine and chimeric 12A11” value in test [8] is ≤ 2 fold.

B8: humanized 12A11 version 3 (antibody, V domains shown)
VH: QVQLVESGGGVVQPGRSLRLSCAFSGFTLSTSGMSVGWIRQAPGKGLEWVAHIWWDDDKYYNPSLKSRFTISRDNSKNTLYLQMNSLRAEDTAVYYCARRTTTADYFAYWGQGTTVTVSS
VL: DVVMTQSPLSLPVTPGEPASISCRSSQSIVHSNGNTYLEWYLQKPGQSPQLLIYKVSNRFSGVPDRFSGSGSGTDFTLKISRVEAEDVGVYYCFQSSHVPLTFGQGTKLEIK
notes: Variable regions only; made like version 2; also called h12A11v3; humanized 12A11 v3
As to B8, in test [6], the Ka turned out to be 6.53e+07 M⁻¹, binding was characterised by a dissociation constant (Kd) of 15.3 nM, the koff amounted to 0.0055 s⁻¹ and the kon was 359000 M⁻¹ s⁻¹.

B9: humanized 12A11 version 2.1 (antibody, V domains shown)
VH: QVQLVESGGGVVQPGRSLRLSCAFSGFTLSTSGMSVGWIRQAPGKGLEWVAHIWWDDDKYYNPSLKSRFTISKDNSKNTLYLQMNSLRAEDTAVYYCARRTTTADYFAYWGQGTTVTVSS
VL: DVVMTQSPLSLPVTPGEPASISCRSSQSIVHSNGNTYLEWYLQKPGQSPQLLIYKVSNRFSGVPDRFSGSGSGTDFTLKISRVEAEDVGVYYCFQSSHVPLTFGQGTKLEIK
notes: Variable regions only; made like version 2; also called h12A11v2.1
As to B9, in test [6], the Ka is 1.17e+08 M⁻¹; the affinity, expressed as Kd, was 8.54 nM; the koff stood at 0.00261 s⁻¹; the kon is 306000 M⁻¹ s⁻¹.

B10: humanized 12A11 version 3.1 (antibody, V domains shown)
VH: QVQLVESGGGVVQPGRSLRLSCAFSGFTLSTSGMSVGWIRQAPGKGLEWLAHIWWDDDKYYNPSLKSRFTISKDNSKNTLYLQMNSLRAEDTAVYYCARRTTTADYFAYWGQGTTVTVSS
VL: DVVMTQSPLSLPVTPGEPASISCRSSQSIVHSNGNTYLEWYLQKPGQSPQLLIYKVSNRFSGVPDRFSGSGSGTDFTLKISRVEAEDVGVYYCFQSSHVPLTFGQGTKLEIK
notes: Variable regions only tied to the tested antibody; also called h12A11v3.1; humanized 12A11 v3.1
Turning to B10, in test [6], the Ka was 1.67e+08 M⁻¹, the Kd came out at 5.99 nM, the off-rate (koff) was 0.00313 s⁻¹ and the kon amounted to 523000 M⁻¹ s⁻¹.

Values taken from patent publication US20060257396A1 (published 2006).
